The record followed here is US20070004909A1 (MacroGenics, published 2007).

By EC50 (read off the curve) is commonly meant the concentration giving half of the maximal effect. Low values mean greater potency, high ones weaker potency. By Kd is commonly meant the concentration at which binding is half-saturated. Higher therefore signals a looser complex.

The target in assay [1] is T1, soluble CD16A (sCD16A) (UniProt P08637 17-208, limits assumed).
T1 construct: extracellular domain; Amine-coupled to the chip in SPR; biotin- or HRP-conjugated as the probe in the sandwich ELISAs; also called FcγRIIIA; sCD16A-Biotin
T1 sequence (P08637 17-208 limits assumed): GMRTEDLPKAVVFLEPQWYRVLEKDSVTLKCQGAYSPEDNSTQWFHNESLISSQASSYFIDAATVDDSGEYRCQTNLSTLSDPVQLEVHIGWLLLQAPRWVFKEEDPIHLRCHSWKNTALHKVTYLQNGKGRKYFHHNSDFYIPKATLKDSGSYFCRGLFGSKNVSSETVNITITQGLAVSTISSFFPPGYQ
The assay is described as follows: sandwich ELISA: sCD32B coated on the plate, normalised conditioned medium titrated, HRP-conjugated sCD16A as the probe; OD450. As for the experimental part:
The binding of diabody molecules comprising Fc domains and engineered disulfide bonds between the ‘lighter’ and ‘heavier’ polypeptide chains to sCD32B and sCD16A was assayed in a sandwich ELISA. Diabodies assayed were produced by 3 recombinant expression systems: expressing constructs 1 and 10, expressing constructs 1 and 9, and expressing constructs 11 and 12, respectively. sCD32B was used as the target protein. The secondary probe was HRP conjugated sCD16A. Binding of h3G8 was used as control.
(§1) ELISA: The binding of diabody molecules secreted into the medium was assayed by sandwich ELISA as described, supra. Unless indicated, CD32B was used to coat the plate, i.e., as the target protein, and HRP-conjugated CD16 was used as the probe.
(In general: ELISA stands for enzyme-linked immunosorbent assay.)

A further assay concerns the target T2, soluble CD32A (sCD32A) (UniProt P12318 34-217, limits assumed).
T2 construct: extracellular domain; Negative control surface in SPR; also called control receptor
T2 sequence (looked up): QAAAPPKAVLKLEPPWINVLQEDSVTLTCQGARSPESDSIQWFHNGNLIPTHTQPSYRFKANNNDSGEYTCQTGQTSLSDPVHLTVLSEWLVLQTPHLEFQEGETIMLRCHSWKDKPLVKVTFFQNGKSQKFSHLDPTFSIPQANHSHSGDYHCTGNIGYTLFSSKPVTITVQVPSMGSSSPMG
The assay is described as follows: SPR (BIAcore), sCD32A (negative control receptor) immobilised, diabody injected for 60 s. As for the experimental part:
The binding of h2B6-h3G8 CBD, h2B6 CMD and h3G8 CMD to sCD16A, sCD32B, and sCD32A (negative control) was assayed by SPR analysis. h3G8 scFv was also tested as a control. (A) Binding to sCD16; (B) Binding to sCD32B and (C) Binding to sCD32A. Diabodies were injected at a concentration of 100 NM, and scFv at a concentration of 200 nM, over receptor surfaces at a flow rate of […] for 60 sec.
A general note: In SPR one partner is held on a chip, and binding of the other changes the refractive index at the surface.

The target in another assay is T3, sCD32B-Ig (UniProt P31994 43-217).
T3 construct: extracellular domain; also called CD32B (ELISA coat); sCD32B (target protein of the sandwich ELISAs); not shown: Ig part of sCD32B-Ig is not described
T3 sequence (looked up): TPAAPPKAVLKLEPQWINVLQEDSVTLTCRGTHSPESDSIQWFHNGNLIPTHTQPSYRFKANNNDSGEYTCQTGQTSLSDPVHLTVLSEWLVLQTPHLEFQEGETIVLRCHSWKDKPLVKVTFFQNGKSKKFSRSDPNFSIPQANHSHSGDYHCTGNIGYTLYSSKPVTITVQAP
Nature of the assay: sandwich ELISA: sCD32B-Ig coated on the plate, diabody titrated, detected with labelled sCD16A; OD450. As for the experimental part: The binding of h2B6-h3G8 CBD to sCD32B and sCD16A was assayed in a sandwich ELISA. sCD32B was used as the target protein. The secondary probe was HRP conjugated sCD16A. h3G8 CMD, which binds CD16A, was used as control.
ELISA: The binding of eluted and purified diabodies was characterized by ELISA assay, as described in 5.4.2. 50 ul/well of a 2 ug/ml solution of sCD32B-Ig was coated on 96-well Maxisorp plate in Carbonate buffer at 4° C. over night. The plate was washed three times with PBS-T (PBS, 0.1% Tween 20) and blocked by 0.5% BSA in PBS-T for 30 minutes at room temperature. Subsequently, h2B6-h3G8 CBD, h2B6 CMD, or h3G8 CMD were diluted into the blocking buffer in a serial of two-fold dilutions to generate a range of diabody concentrations, from 0.5 μg/ml to 0.001 μg/ml. The plate was then incubated at room temperature for 1 hour. After washing with PBS-T three times, 50 ul/well of 0.2 ug/ml sCD16A-Biotin was added to each well. The plate was again incubated at room temperature for 1 hour. After washing with PBS-T three times, 50 ul/well of a 1:5000 dilution of HRP conjugated streptavidin (Amersham Pharmacia Biotech) was used for detection. The HRP-streptavidin was allowed to incubate for 45 minutes at room temperature. […] The OD450 nm was read by using a 96-well plate reader and SOFTmax software, and results plotted using GraphPadPrism 3.03 software. […]

Assay [2] deals with T1, soluble CD16A (sCD16A). The assay is described as follows: SPR (BIAcore 1000); receptor amine-coupled (~1000 RU), analyte 6.25-200 nM; units not printed (koff/kon implies nM). As to the method:
(§2) The binding of h2B6-h3G8 CBD, h2B6 CMD and h3G8 CMD to sCD16A, and sCD32B was assayed by SPR analysis. h3G8 scFv was also tested as a control. (A) Binding of to h3G8 CMD sCD16A; (B) Binding of h2B6-h3G8 CBD to sCD16A; (C) Binding of h3G8 scFv to sCD16A; (D) Binding of h2B6 CMD to sCD32B; and (E) Binding of h2B6-h3G8 CBD to sCD32B. Diabodies were injected at concentrations of 6.25-200 nM over receptor surfaces at a flow rate of […] for 180 sec.
(§3) SPR analysis was also used to estimate the kinetic and equilibrium constants of the CMDs and h2B6-h3G8 CBD to sCD16 and/or sCD32B. Results were compared to the same constants calculated for an h3G8 scFV. FIGS. 7A-E show the graphical results of the SPR analysis. The kinetic on and off rates, as well as the equilibrium constant, calculated from the results depicted in FIG. 7 are provided in Table 13.

The target of another assay is T4, soluble CD32B (sCD32B) (UniProt P31994 43-217, limits assumed).
T4 construct: extracellular domain; As immobilised on the BIAcore chip; also called FcγRIIB
T4 sequence (looked up): T3 sequence (looked up)
Described as above. As for the experimental part:
as §2, §3

Assay [3] has as its target T1, soluble CD16A (sCD16A). The assay is described as follows: sandwich ELISA: sCD32B coated on the plate, normalised conditioned medium titrated, HRP-conjugated sCD16A as the probe; OD450. As to the method: The binding of diabody molecules comprising Fc domains to sCD32B and sCD16A was assayed in a sandwich ELISA. Diabodies assayed were produced by 4 recombinant expression systems: cotransfection of pMGX669+pMGX674, expressing constructs 1 and 6, respectively; cotransfection of pMGX669+pMGX678, expressing constructs 2 and 8, respectively; cotransfection of pMGX677+pMGX674, expressing constructs 7 and 6, respectively; and cotransfection of pMGX677+pMGX678, expressing constructs 7 and 8, respectively. sCD32B was used as the target protein. The secondary probe was HRP conjugated sCD16A.
as §1
This is another data set of the same source.

The target of the next assay is T5, murine CD32B (mCD32B) (murine, UniProt P08101 30-210, limits assumed).
T5 construct: Coating protein of the sandwich ELISA for the construct 13 product
T5 sequence (looked up): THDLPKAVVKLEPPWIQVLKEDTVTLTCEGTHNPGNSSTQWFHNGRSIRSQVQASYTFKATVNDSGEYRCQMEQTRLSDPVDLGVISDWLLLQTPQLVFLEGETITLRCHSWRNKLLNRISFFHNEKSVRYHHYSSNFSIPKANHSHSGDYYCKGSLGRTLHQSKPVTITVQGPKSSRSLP
The assay is described as follows: sandwich ELISA: mCD32B coated on the plate, diabody preparation diluted 1:25 and 1:50, biotin-conjugated sCD16A as the probe; OD450. As for the experimental part:
(§4) The binding of diabody molecules derived from the polyprotein precursor molecule construct 13 (SEQ ID NO:97) to murine CD32B (mCD32B) and soluble CD16A (sCD16A) was assayed in a sandwich ELISA. mCD32B was used as the target protein. The secondary probe was biotin conjugated sCD16A.
(§5) ELISA: The binding of diabody molecules secreted into the medium was assayed by sandwich ELISA as described, supra. Murine CD32B was used to coat the plate, i.e., as the target protein, and HRP-conjugated CD16A was used as the probe for the product of the co-transfection of constructs 15 and 16. mCD32B was used as the target protein and biotin-conjugated CD16A was used as the probe for the recombinant system comprising construct 13.
(§6) Conditioned media from the recombinant expression systems comprising constructs 13 was analysed by sandwich ELISA. The ELISA assay tested the binding of the CBD for specificity to either or both of mCD32B and/or CD16 (FIG. 18). CD32B served as the target antigen and CD16A was used as the secondary probe.

The target of assay [4] is T1, soluble CD16A (sCD16A). The description is as above. As for the experimental part:
as §4, §5, §6

B1: diabody of constructs 11 and 12, C-terminal hinge-Fc and engineered VL/VH cysteines (bispecific antibody, human IgG1)
chain 1: not shown
chain 2: DIVMTQSPDSLAVSLGERATINCKASQSVDFDGDSFMNWYQQKPGQPPKLLIYTTSNLESGVPDRFSGSGSGTDFTLTISSLQAEDVAVYYCQQSNEDPYTFGQGTKLEIKGGGSGGGGQVQLVQSGAEVKKPGASVKVSCKASGYTFTNYWIHWVRQAPGQCLEWIGVIDPSDTYPNYNKKFKGRVTMTVVVSTSTAYMELRSLRSDDTAVYYCARNGDSDYYSGMDYWGQGTTVTVSSFNRGEC
notes: construct 12 = Hu3G8VL-Hu2B6VH(G44C)-FNRGEC; About 150 kDa on the blot
As to B1, in the assay with soluble CD16A (sCD16A) [1], the binding result is “binds”.

B2: diabody of constructs 1 and 9 (pMGX0669+pMGX0719), N-terminal hinge/Fc (bispecific antibody, human IgG1)
chain 1: EIVLTQSPDFQSVTPKEKVTFTCRTSQSIGTNIHWYQQKPDQSPKLLIKEVSESISGVPSRFSGSGSGTDFTLTINSLEAEDAATYYCQQSNTWPFTFGGGTKVEIKGGGSGGGGQVTLRESGPALVKPTQTLTLTCTFSGFSLSTSGMGVGWIRQPPGKALEWLAHIWWDDDKRYNPALKSRLTISKDTSKNQVVLTMTNMDPVDTATYYCAQINPAWFAYWGQGTLVTVSSLGGC
chain 2: not shown
notes: Designed as tetravalent IgG-like diabody; Tested as normalized conditioned medium; also called constructs 9 and 1; constructs 9+1
Turning to B2, in the assay with soluble CD16A (sCD16A) [1], the binding result was “binds”.

B3: h2B6-h3G8 covalent bispecific diabody (CBD) (bispecific antibody)
chain 1: B2 chain 1
chain 2: DIVMTQSPDSLAVSLGERATINCKASQSVDFDGDSFMNWYQQKPGQPPKLLIYTTSNLESGVPDRFSGSGSGTDFTLTISSLQAEDVAVYYCQQSNEDPYTFGQGTKLEIKGGGSGGGGQVQLVQSGAEVKKPGASVKVSCKASGYTFTNYWIHWVRQAPGQGLEWIGVIDPSDTYPNYNKKFKGRVTMTVVVSTSTAYMELRSLRSDDTAVYYCARNGDSDYYSGMDYWGQGTTVTVSSLGGC
notes: also called h2B6-h3G8 CBD; h2B6-h3G8 diabody
Take B3: in the assay with soluble CD32A (sCD32A), the binding result is given as “no binding (tested: 100 nM)”. In addition, the “EC50 (read off the curve)” value in the assay with sCD32B-Ig is ~0.04 µg/mL. In addition, the Kd is 22.7 nM with soluble CD16A (sCD16A) [2] and 15 nM in the assay with soluble CD32B (sCD32B).

B4: diabody of constructs 1 and 10 (pMGX0669+pMGX0718), N-terminal Fc (bispecific antibody)
chain 1: B2 chain 1
chain 2: not shown
notes: also called constructs 10 and 1; constructs 10+1; copies: 2 + 2
For B4, the binding result with soluble CD16A (sCD16A) [1] was “binds”.

B5: tetrameric IgG-like diabody of constructs 7 and 8 (pMGX0677+pMGX0678) (bispecific antibody)
chain 1: EIVLTQSPDFQSVTPKEKVTFTCRTSQSIGTNIHWYQQKPDQSPKLLIKEVSESISGVPSRFSGSGSGTDFTLTINSLEAEDAATYYCQQSNTWPFTFGGGTKVEIKGGGSGGGGQVTLRESGPALVKPTQTLTLTCTFSGFSLSTSGMGVGWIRQPPGKALEWLAHIWWDDDKRYNPALKSRLTISKDTSKNQVVLTMTNMDPVDTATYYCAQINPAWFAYWGQGTLVTVSSLGGCFNRGEC
chain 2: not shown
notes: heavier chain construct 8 (hu3G8VL-hu2B6VH-LGGC-hinge/Fc of human IgG1, A215V); Tested as normalized conditioned medium
On to B5, for which, in the assay with soluble CD16A (sCD16A) [3], the binding result was “binds”.

B6: h2.4G2-h3G8 CBD produced from the polyprotein precursor construct 13 (bispecific antibody)
chain 1: DTVLTQSPASLAVSLGQRATISCKASQSVDFDGDSFMNWYQQKPGQPPKLLIYTTSNLESGIPARFSASGSGTDFTLNIHPVEEEDTATYYCQQSNEDPYTFGGGTKLEIKGGGSGGGGEVELVESGGGLVQPGRSLKLSCAASGFTFSDYYMAWVRQAPTTGLEWVASISYDGGDTHYRDSVKGRFTISRDNAKSSLYLQMDSLRSEDTATYYCATETTGIPTGVMDAWGQGVSVTVSSLGGCGGRAKR
chain 2: DVQMTQSPSNLAASPGESVSINCKASESISKYLAWYLQKPGKANKLLMYDGSTLQSGIPSRFSGSGSGTDFTLTIRSLEPEDFGLYYCQQHYEYPATFGSGTKLEIKGGGSGGGGQVTLKESGPGILQPSQTLSLTCSFSGFSLRTSGMGVGWIRQPSGKGLEWLAHIWWDDDKRYNPALKSRLTISKDTSSNQVFLKIASVDTADTATYYCAQINPAWFAYWGQGTLVTVSSLGGC
modifications: Interchain disulfide between the cysteines of the two LGGC sequences.
notes: In the assay it is the heterodimer of the two chains made by furin cleavage; also called pMGX0750 product; diabody molecules derived from the polyprotein precursor; copies: 1 + 1
Take B6: the binding result with murine CD32B (mCD32B) and in the assay with soluble CD16A (sCD16A) [4] was “binds” throughout.
